Results from patent US20100104509A1, “HUMAN ANTIBODIES THAT BIND CD19 AND USES THEREOF” (Medarex, Inc., priority 2006, published 2010).
Changes are numbered by the printed parent chain. In names and notes the source's numbering stands. Several values for one entry are separate records, joined by “and”; a condition that tells them apart may be missing. Equal values may be shown once.

Legend:
[1] = Differential scanning calorimetry; type: physicochemical; settings: 2.3 μM in PBS pH 7.4, 30 to 95° C. at 1° C./min
Procedure: The thermal stability of the anti-CD19 monoclonal antibodies were compared using calorimetric analysis of their melting temperatures.
Calorimetric measurements of melting Temperatures™ were carried out on a VP-Capillary DSC differential scanning microcalorimeter platform that is combined with an autosampler (MicroCal LLC, Northampton, Mass., USA). Sample cell volume is 0.144 mL. Denaturation data on the glycosylated and deglycosylated forms of the antibodies was obtained by heating the samples, at a concentration of 2.3 μM, from 30 to 95° C. at a rate of 1° C./min. The protein samples were present in phosphate-buffered saline (PBS) at pH 7.4. The same buffer was used in the reference cell to obtain the molar heat capacity by comparison. The observed thermograms were baseline corrected and normalized data analyzed based on a 2-state model, using the software Origin v7.0.

[2] = Capillary isoelectric focusing; type: physicochemical; settings: capillary isoelectric focusing kit assay; listed as fucosylated 21D4a
[3] = Chemical denaturation by fluorescence spectroscopy; type: physicochemical; settings: guanidinium hydrochloride in PBS, 24 hours, 2 μM antibody
Procedure: The stability of anti-CD19 monoclonal antibodies were compared by measuring the midpoint of chemical denaturation by fluorescence spectroscopy.
Fluorescence measurements of chemical denaturation were performed on a SPEX Fluorolog 3.22 with a Micromax plate reader (SPEX, Edison, N.J.). The measurements were performed on antibody samples that had been left for 24 hours to equilibrate in 16 different concentrations of guanidinium hydrochloride in PBS buffer. The measurements were made in black, low volume, non-binding surface 384-well plates (Corning, Acton, Mass.) and required 2 μM of antibody in a well volume of 12 μL Fluorescence was excited at 280 nm and the emission spectra were measured between 300 and 400 nm. The scan speed was 1 second per nm and slits were set to 5 nm bandpass. A buffer blank was performed using PBS and automatically subtracted from the data.

Raji B cell line = biological target: T1, Raji B cell line (Homo sapiens, UniProt P15391); assay: Flow cytometry binding to Raji cells
T1 construct: the CD19 protein is expressed on the surface of tumor cell lines of B cell origin; host or cells: Raji (human Burkitt's lymphoma B cell line)
T1 sequence (P15391 20-556): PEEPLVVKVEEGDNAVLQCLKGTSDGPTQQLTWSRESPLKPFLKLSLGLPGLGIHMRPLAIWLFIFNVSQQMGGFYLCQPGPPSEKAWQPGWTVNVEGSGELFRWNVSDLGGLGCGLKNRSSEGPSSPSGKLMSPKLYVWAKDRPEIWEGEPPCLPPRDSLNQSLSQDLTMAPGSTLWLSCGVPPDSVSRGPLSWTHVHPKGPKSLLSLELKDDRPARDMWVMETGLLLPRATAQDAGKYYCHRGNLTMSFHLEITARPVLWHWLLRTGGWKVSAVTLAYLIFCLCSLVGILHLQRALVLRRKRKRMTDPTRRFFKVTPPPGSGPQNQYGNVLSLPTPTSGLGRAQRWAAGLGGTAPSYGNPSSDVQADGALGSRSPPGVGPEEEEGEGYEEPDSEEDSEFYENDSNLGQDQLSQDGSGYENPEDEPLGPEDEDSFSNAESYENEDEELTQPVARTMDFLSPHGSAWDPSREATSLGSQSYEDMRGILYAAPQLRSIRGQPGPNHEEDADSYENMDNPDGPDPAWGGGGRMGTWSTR
Procedure: Binding of the CD19 HuMAbs by flow cytometry to the B cell tumor lines Raji and Daudi, or to a CHO-CD19 transfected cell line was assessed. CHO cells were transfected with an expression plasmid containing the full length cDNA encoding the transmembrane form of CD19. […] A known murine anti-CD19 antibody was used as a positive control. The cells were washed and detected by either a phycoerythrin-labeled anti-human or anti-mouse secondary antibody and analyzed by flow cytometry. The results for binding to the CHO-CD19 cell line, Daudi B cell line, Raji B cell line and an expanded binding set against the Raji B cell line are shown in FIGS. 25A, 25B, 25C and 25D, respectively. […] All results are shown as measured by the geometric mean fluorescent intensity (GMFI) of staining.

B1: 21D4a: human monoclonal anti-CD19 antibody, VH SEQ ID NO: 1 and VL SEQ ID NO: 9 (antibody, listed as Homo sapiens, V domains shown)
VH: EVQLVQSGAEVKKPGESLKISCKGSGYSFSSSWIGWVRQMPGKGLEWMGIIYPDDSDTRYSPSFQGQVTISADKSIRTAYLQWSSLKASDTAMYYCARHVTMIWGVIIDFWGQGTLVTVSS
VL: AIQLTQSPSSLSASVGDRVTITCRASQGISSALAWYQQKPGKAPKLLIYDASSLESGVPSRFSGSGSGTDFTLTISSLQPEDFATYYCQQFNSYPFTFGPGTKVDIK
Thermo Stability Tm1 [1]: 69.7 °C
observed pI values [2]: 8.44 pH and 8.21 pH
Unfolding Midpoint [3]: 2.97 M
binding by flow cytometry (GMFI) (Raji B cell line): bound to the Raji B cell line

B2: 46E8: human monoclonal anti-CD19 antibody, VH SEQ ID NO: 7 and VL SEQ ID NO: 15 (antibody, listed as Homo sapiens, V domains shown)
VH: EVQLVQSGAEVKKPGESLQISCKGSGYTFTNYWIAWVRQMPGKGLEWMGIIYPGDSDTRYSPSFQGQVTISADKSISTAYLQWSGLKASDTAMYYCARQGYSSGWRSYYGMGVWGQGTTVTVSS
VL: B1 VL with F96H, P100Q, V104L, D105E
Thermo Stability Tm1 [1]: 66.4 °C
Aggregation Peak [3]: 2.16 M
Unfolding Midpoint [3]: 2.43 M

B3: 5G7: human monoclonal anti-CD19 antibody, VH SEQ ID NO: 5 and VL SEQ ID NO: 13 (antibody, listed as Homo sapiens, V domains shown)
VH: B1 VH with K19N, S30T, S32Y, D54G, R77N, H99G, T101S, I108M, F110V, L116T
VL: B1 VL with F96W, P100Q, D105E
Thermo Stability Tm1 [1]: 68.5 °C
Unfolding Midpoint [3]: 2.91 M
binding by flow cytometry (GMFI) (Raji B cell line): bound to the Raji B cell line

B4: 5G7-N19Q: 5G7 with N-I-S sequence starting at position 19 changed to Q-I-S (antibody, V domains shown)
VH: B1 VH with K19Q, S30T, S32Y, D54G, R77N, H99G, T101S, I108M, F110V, L116T
VL: B1 VL with F96W, P100Q, D105E
binding by flow cytometry (GMFI) (Raji B cell line): bound to the Raji B cell line

B5: 5G7-N19K: 5G7 with N-I-S sequence starting at position 19 changed to K-I-S (antibody, V domains shown)
VH: B1 VH with S30T, S32Y, D54G, R77N, H99G, T101S, I108M, F110V, L116T
VL: B1 VL with F96W, P100Q, D105E
binding by flow cytometry (GMFI) (Raji B cell line): bound to the Raji B cell line

B6: 13F1: human monoclonal anti-CD19 antibody, VH SEQ ID NO: 6 and VL SEQ ID NO: 14 (antibody, listed as Homo sapiens, V domains shown)
VH: B2 VH
VL: B1 VL with F96H, P100Q, V104L, D105E
binding by flow cytometry (GMFI) (Raji B cell line): bound to the Raji B cell line
